Experimental findings from paper PMC5758897 (Nucleic Acids Research, 2017) are described below.

In experiment [1] the target is YEATS domain of Yaf9 (aa 8–171), wild type (S. cerevisiae) (UniProt P53930). As to the kind of experiment: other fluorescence titration.
Experiment [2] deals with T1, YEATS domain of Yaf9 (WT, aa 8–171) (Saccharomyces cerevisiae, UniProt P53930).
T1 sequence (P53930 8-171): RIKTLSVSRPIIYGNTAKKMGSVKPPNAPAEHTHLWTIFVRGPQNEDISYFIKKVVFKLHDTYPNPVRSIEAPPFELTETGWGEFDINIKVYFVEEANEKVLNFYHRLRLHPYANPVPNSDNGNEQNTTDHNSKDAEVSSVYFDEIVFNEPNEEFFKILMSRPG
Briefly: 1H,15N HSQC NMR titration, Yaf9 YEATS WT. The experiment is classed as binding. Conditions: free acetyllysine (NMR) vs H3K27ac peptide.

Experiment [3] concerns the target T2, D104R mutant of Taf14-YEATS (aa 1–137) (yeast, UniProt P35189 1-137, D104R).
T2 sequence (looked up): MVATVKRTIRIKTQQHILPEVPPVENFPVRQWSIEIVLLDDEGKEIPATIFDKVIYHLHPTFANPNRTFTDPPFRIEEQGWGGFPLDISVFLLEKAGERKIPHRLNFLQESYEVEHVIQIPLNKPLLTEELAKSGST
Briefly: other fluorescence titration.

For experiment [4], the target named is T3, YEATS domain of Taf14 (aa 1–137), wild type (yeast, UniProt P35189 1-137).
T3 sequence (looked up): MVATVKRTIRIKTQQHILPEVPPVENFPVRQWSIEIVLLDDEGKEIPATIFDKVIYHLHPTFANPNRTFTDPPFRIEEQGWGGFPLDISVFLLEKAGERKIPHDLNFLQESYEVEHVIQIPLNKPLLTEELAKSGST
As to the kind of experiment: other fluorescence titration.

Experiment [5] has as its target T4, G83E mutant of Taf14-YEATS (aa 1–137) (yeast, UniProt P35189 1-137, G83E).
T4 sequence (looked up): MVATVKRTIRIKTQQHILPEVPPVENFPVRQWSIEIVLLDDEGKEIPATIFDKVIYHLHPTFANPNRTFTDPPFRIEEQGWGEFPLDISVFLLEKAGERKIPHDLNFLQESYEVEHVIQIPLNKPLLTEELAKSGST
Briefly: other fluorescence titration.

Experiment [6] addresses T5, AF9 YEATS domain (aa 1–138), wild type (human, UniProt P42568 1-138).
T5 sequence (looked up): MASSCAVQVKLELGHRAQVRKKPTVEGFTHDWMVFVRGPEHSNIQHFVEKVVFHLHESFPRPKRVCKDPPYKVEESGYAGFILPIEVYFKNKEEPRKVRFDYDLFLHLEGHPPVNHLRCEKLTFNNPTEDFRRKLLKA
Briefly: other fluorescence titration.

The target of experiment [7] is T6, E91G mutant of Yaf9-YEATS (aa 8–171) (S. cerevisiae, UniProt P53930 8-171, E91G).
T6 sequence (looked up): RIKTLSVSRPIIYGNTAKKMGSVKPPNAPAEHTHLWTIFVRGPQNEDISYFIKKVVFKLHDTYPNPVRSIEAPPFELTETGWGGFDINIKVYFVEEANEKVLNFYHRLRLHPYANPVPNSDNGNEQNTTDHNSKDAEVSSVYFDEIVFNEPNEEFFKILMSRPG
Briefly: other fluorescence titration.

Where no end group is shown, it is not given here.

Usually Kd stands for the concentration at which binding is half-saturated. Take “histone H3K27ac peptide (aa 21–31 of H3) (from UniProt P68431 22-32)”: the Kd in experiment [1] worked out at 10 µM.

For `CC(=O)NCCCC[C@H](N)C(=O)O` [Kac, acetyllysine], in experiment [2], the “binding of free acetyllysine weaker” value is “over 200 fold”.

With QTARK(Ac)STGG (peptide, UniProt P68431 6-14, looked up, also: biotinylated, site not given here) [histone H3K9ac peptide (aa 5–13 of H3)], the binding result in experiment [3], in experiment [4] and in experiment [6] was “binds” each time. Further, the “fold decrease in binding against WT Taf14-YEATS” value in experiment [5] is about 2 fold. Also, the “fold increase in binding against WT Yaf9-YEATS” value in experiment [7] is about 1.5 fold.
